Data from the supplement of paper PMC10567573.

B1: ZNF24 (parent)
chain: THTKEQILELVVLEQFVAILPKEL
B2: MNAT1 (parent)
chain: LAPIHKLEEALYEYQPLQIETYGP

Variants of: B1
Assay: protein stability index of a GFP-peptide fusion (GPS, HEK-293T) (PSI 1-6); higher = more stable
Details: c terminus: a fixed tail appended
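Note: lentivirally expressed fusions sorted by FACS into six bins by GFP to DsRed ratio, PSI derived from sequencing read proportions per bin multiplied by bin number.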

Compared with F16H, F16V is lower in protein stability index: 2.13 for the first, 2.02 for the second.

Going from F16D to Q15Y, the protein stability index falls from 2.33 to 2.18.

First: Q15K
Second: Q15N
The protein stability index of the first is lower: 1.75 for the first, 2.81 for the second.

First: Q15A
Second: Q15I
The protein stability index of the first is lower: 2 for the first, 2.87 for the second.

First: L24P
Second: L24S
The protein stability index of the first is higher: 4.16 for the first, 2.86 for the second.

First: L24T
Second: L24K
The protein stability index of the first is higher: 2.7 for the first, 2.33 for the second.

Going from L24C to L24V, the protein stability index rises from 2.88 to 4.07.

First: L24F
Second: L24Q
The protein stability index of the first is higher: 3.54 for the first, 1.81 for the second.

Compared with E14W, E14V is lower in protein stability index: 3.05 for the first, 1.16 for the second.

Compared with E14R, E14P is lower in protein stability index: 2.95 for the first, 2.12 for the second.

Compared with E14D, E14G is higher in protein stability index: 2.24 for the first, 3.21 for the second.

Compared with I19M, I19N is lower in protein stability index: 3.34 for the first, 1.7 for the second.

First: I19Y
Second: I19E
The protein stability index of the first is lower: 2.18 for the first, 2.37 for the second.

First: I19H
Second: I19F
The protein stability index of the first is higher: 2.32 for the first, 2.22 for the second.

Going from I19Q to V12S, the protein stability index rises from 2.01 to 2.03.

Going from V12Y to V12T, the protein stability index falls from 2.64 to 1.99.

Compared with V12G, V12E is higher in protein stability index: 1.98 for the first, 2.22 for the second.

Going from V12R to V12H, the protein stability index falls from 1.94 to 1.8.

Compared with L8S, L8C is higher in protein stability index: 1.57 for the first, 2.75 for the second.

First: L8A
Second: L13K
The protein stability index of the first is higher: 2.28 for the first, 1.69 for the second.

Compared with L13H, L13M is higher in protein stability index: 1.76 for the first, 2.18 for the second.

Compared with L13C, L13R is lower in protein stability index: 1.98 for the first, 1.85 for the second.

Compared with L13I, L10P is lower in protein stability index: 3.27 for the first, 2.09 for the second.

Going from L10S to L10D, the protein stability index rises from 1.72 to 2.69.

Compared with L10G, L10Y is higher in protein stability index: 1.7 for the first, 2.69 for the second.

First: L10V
Second: E5S
The protein stability index of the first is higher: 2.5 for the first, 1.57 for the second.

Compared with E5M, E5C is lower in protein stability index: 3.25 for the first, 2.31 for the second.

Compared with E23D, E23V is higher in protein stability index: 2.29 for the first, 2.76 for the second.

Compared with E23H, E23Y is lower in protein stability index: 3.33 for the first, 3.09 for the second.

Going from E23A to E23G, the protein stability index rises from 2.59 to 3.15.

Compared with T1P, T1D is lower in protein stability index: 3.09 for the first, 2.63 for the second.

First: T1N
Second: T1I
The protein stability index of the first is higher: 2.86 for the first, 2.73 for the second.

First: A18H
Second: A18G
The protein stability index of the first is higher: 3.02 for the first, 2.88 for the second.

Going from A18V to H2G, the protein stability index rises from 2.58 to 2.96.

Compared with H2V, H2L is higher in protein stability index: 2.41 for the first, 4.38 for the second.

First: H2C
Second: V11F
The protein stability index of the first is lower: 2.25 for the first, 3.28 for the second.

First: V11M
Second: V11S
The protein stability index of the first is higher: 2.6 for the first, 2.03 for the second.

First: V11C
Second: V11T
The protein stability index of the first is higher: 2.51 for the first, 2 for the second.

Compared with V11N, V11Y is lower in protein stability index: 2.15 for the first, 1.91 for the second.

Compared with P21S, P21Q is higher in protein stability index: 1.42 for the first, 2.66 for the second.

First: P21I
Second: P21C
The protein stability index of the first is lower: 1.92 for the first, 3.76 for the second.

Compared with P21E, L20H is lower in protein stability index: 2.23 for the first, 1.67 for the second.

First: L20Q
Second: L20Y
The protein stability index of the first is higher: 3.05 for the first, 1.46 for the second.

First: L20E
Second: L20C
The protein stability index of the first is lower: 2.23 for the first, 2.24 for the second.

First: L20P
Second: L20W
The protein stability index of the first is lower: 2.78 for the first, 4.08 for the second.

Going from L20K to L20D, the protein stability index rises from 1.63 to 2.6.

Going from K22M to K22Y, the protein stability index falls from 3.15 to 2.9.

Compared with K22H, K22F is higher in protein stability index: 2.12 for the first, 3.51 for the second.

Compared with K22G, K22P is lower in protein stability index: 4.16 for the first, 2.18 for the second.

Going from K22C to Q6Y, the protein stability index rises from 2.67 to 4.9.

Going from Q6M to Q6F, the protein stability index falls from 3.56 to 3.53.

Going from Q6L to Q6T, the protein stability index falls from 3.47 to 3.03.

Going from T3H to T3W, the protein stability index rises from 2.23 to 3.42.

First: T3I
Second: T3S
The protein stability index of the first is lower: 2.65 for the first, 3.88 for the second.

First: T3A
Second: E9N
The protein stability index of the first is higher: 3.86 for the first, 2.82 for the second.

Going from E9V to E9M, the protein stability index falls from 3.25 to 2.04.

Compared with E9T, E9Y is higher in protein stability index: 2.29 for the first, 3.52 for the second.

First: E9P
Second: K4P
The protein stability index of the first is higher: 2.93 for the first, 2.23 for the second.

Going from K4Q to K4W, the protein stability index rises from 2.59 to 2.88.

Compared with V17Y, V17D is lower in protein stability index: 2.53 for the first, 1.71 for the second.

First: V17I
Second: V17Q
The protein stability index of the first is higher: 2.94 for the first, 2.02 for the second.

First: V17R
Second: V17A
The protein stability index of the first is lower: 1.66 for the first, 3.14 for the second.

First: I7T
Second: I7L
The protein stability index of the first is lower: 2.11 for the first, 2.16 for the second.

Going from I7F to I7S, the protein stability index falls from 2.54 to 2.04.

I7C gave a protein stability index of 1.59.

Variants of: B2
Assay: as above
Details: c terminus: a fixed tail appended

Compared with Y14L, E9L is higher in protein stability index: 2.1 for the first, 3.09 for the second.

Compared with E9S, E9Q is higher in protein stability index: 1.71 for the first, 1.91 for the second.

Compared with Q15D, Y12P is lower in protein stability index: 2.94 for the first, 2.23 for the second.

Going from Y12E to Y12M, the protein stability index falls from 2.65 to 2.25.

Going from Y12I to Y12A, the protein stability index falls from 2.64 to 1.27.

First: I19S
Second: L1V
The protein stability index of the first is higher: 2.73 for the first, 2.31 for the second.

Compared with H5G, H5N is higher in protein stability index: 1.96 for the first, 2.21 for the second.

Going from A10M to A10N, the protein stability index rises from 1.45 to 2.69.

First: A10H
Second: G23P
The protein stability index of the first is higher: 2.28 for the first, 1.67 for the second.

Going from L7E to P16A, the protein stability index falls from 3.98 to 2.43.

Going from E20G to E20K, the protein stability index rises from 1.98 to 3.27.

First: I4G
Second: I4V
The protein stability index of the first is higher: 3.06 for the first, 2.13 for the second.

First: I4M
Second: P3Y
The protein stability index of the first is lower: 1.92 for the first, 2.18 for the second.

First: K6W
Second: K6C
The protein stability index of the first is higher: 2.4 for the first, 1.64 for the second.

First: Y22R
Second: Y22T
The protein stability index of the first is lower: 1.73 for the first, 2.64 for the second.

First: Y22N
Second: Y22K
The protein stability index of the first is lower: 2.74 for the first, 2.8 for the second.

Compared with L17F, L17Q is higher in protein stability index: 1.84 for the first, 2.19 for the second.

Going from E13F to T21P, the protein stability index rises from 2.29 to 2.46.

Compared with A2H, A2N is higher in protein stability index: 2.21 for the first, 2.23 for the second.
